No end group written: not given here. *: point of attachment. RhodamineB = CCN(CC)c1ccc2c(-c3ccccc3C(=O)*)c3ccc(=[N+](CC)CC)cc-3oc2c1
T1: NativeRPtag(large)_with_Tags_and_Cys (Thermoanaerobacter tengcongensis)
T1 construct: Unlabeled in anisotropy assays; coupled through the engineered N-terminal Cys to SulfoLink agarose or maleimide plates in column, pull-down and ELISA assays
T1 chain: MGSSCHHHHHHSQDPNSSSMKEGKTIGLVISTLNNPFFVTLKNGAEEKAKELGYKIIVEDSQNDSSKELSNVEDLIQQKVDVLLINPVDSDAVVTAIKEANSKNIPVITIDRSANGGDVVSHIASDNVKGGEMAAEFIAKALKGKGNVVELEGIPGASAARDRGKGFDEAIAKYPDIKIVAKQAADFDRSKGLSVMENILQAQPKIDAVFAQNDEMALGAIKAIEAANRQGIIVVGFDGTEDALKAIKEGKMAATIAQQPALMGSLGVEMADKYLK

B1: RPtag(small) Nd8, Cd3 (peptide)
peptide: RhodamineB-PAELKLITKE
B2: RPtag(small) Nd8, Cd3, e18a (peptide)
peptide: RhodamineB-PAELKLITKA
B3: RPtag(small) e2a (peptide)
peptide: RhodamineB-GAKIPNFIPAELKLITKENVQ
B4: RPtag(small) k17a (peptide)
peptide: RhodamineB-GEKIPNFIPAELKLITAENVQ
B5: RPtag(small) q21a (peptide)
peptide: RhodamineB-GEKIPNFIPAELKLITKENVA
notes: built here from the native peptide with the stated change
B6: RPtag(small) i4a (peptide)
peptide: RhodamineB-GEKAPNFIPAELKLITKENVQ
B7: RPtag(small) p9a (peptide)
peptide: RhodamineB-GEKIPNFIAAELKLITKENVQ
B8: RPtag(small) k3a (peptide)
peptide: RhodamineB-GEAIPNFIPAELKLITKENVQ
B9: RPtag(small) i15a (peptide)
peptide: RhodamineB-GEKIPNFIPAELKLATKENVQ
B10: RPtag(small) f7a (peptide)
peptide: RhodamineB-GEKIPNAIPAELKLITKENVQ
B11: RPtag(small) i8a (peptide)
peptide: RhodamineB-GEKIPNFAPAELKLITKENVQ
B12: RPtag(small) n6a (peptide)
peptide: RhodamineB-GEKIPAFIPAELKLITKENVQ
B13: RPtag(small) l12a (peptide)
peptide: RhodamineB-GEKIPNFIPAEAKLITKENVQ
B14: RPtag(small) e11a (peptide)
peptide: RhodamineB-GEKIPNFIPAALKLITKENVQ
B15: RPtag(small) l14a (peptide)
peptide: RhodamineB-GEKIPNFIPAELKAITKENVQ
B16: RPtag(small) e18a (peptide)
peptide: RhodamineB-GEKIPNFIPAELKLITKANVQ
B17: RPtag(small) Nd6 (peptide)
peptide: RhodamineB-FIPAELKLITKENVQ
B18: RPtag(small) Nd2, k3a, p5a (peptide)
peptide: RhodamineB-AIANFIPAELKLITKENVQ
B19: RPtag(small) Cd6 (peptide)
peptide: RhodamineB-GEKIPNFIPAELKLI
B20: RPtag(small) Nd3 (peptide)
peptide: RhodamineB-IPNFIPAELKLITKENVQ
B21: RPtag(small) Nd4 (peptide)
peptide: RhodamineB-PNFIPAELKLITKENVQ
B22: RPtag(small) Nd10, Cd5 (peptide)
peptide: RhodamineB-ELKLIT
B23: RPtag(small) Nd12 (peptide)
peptide: RhodamineB-KLITKENVQ
B24: RPtag(small) Nd8 (peptide)
peptide: RhodamineB-PAELKLITKENVQ
B25: RPtag(small) Nd9 (peptide)
peptide: RhodamineB-AELKLITKENVQ
B26: RPtag(small) Nd6, Cd4 (peptide)
peptide: RhodamineB-FIPAELKLITK
B27: RPtag(small) Nd5 (peptide)
peptide: RhodamineB-NFIPAELKLITKENVQ
B28: RPtag(small) Nd3, p5a, e18a (peptide)
peptide: RhodamineB-IANFIPAELKLITKANVQ
B29: RPtag(small) Cd5 (peptide)
peptide: RhodamineB-GEKIPNFIPAELKLIT
B30: RPtag(small) Cd7 (peptide)
peptide: RhodamineB-GEKIPNFIPAELKL
B31: RPtag(small) Nd10, Cd3 (peptide)
peptide: RhodamineB-ELKLITKE
B32: RPtag(small) Nd10, Cd3, e18a (peptide)
peptide: RhodamineB-ELKLITKA
B33: RPtag(small) Nd6, Cd3 (peptide)
peptide: RhodamineB-FIPAELKLITKE
B34: RPtag(small) Nd6, Cd3, e18a (peptide)
peptide: RhodamineB-FIPAELKLITKA
B35: RPtag(small) Nd13 (peptide)
peptide: RhodamineB-LITKENVQ
B36: RPtag(small) Nd2, e18a (peptide)
peptide: RhodamineB-KIPNFIPAELKLITKANVQ
B37: RPtag(small) Nd2 (peptide)
peptide: RhodamineB-KIPNFIPAELKLITKENVQ
B38: RPtag(small) Nd2, k3r, p5a, e18a (peptide)
peptide: RhodamineB-RIANFIPAELKLITKANVQ
B39: RPtag(small) Nd11 (peptide)
peptide: RhodamineB-LKLITKENVQ
B40: RPtag(small) Nd7 (peptide)
peptide: RhodamineB-IPAELKLITKENVQ
B41: RPtag(small) Nd10 (peptide)
peptide: RhodamineB-ELKLITKENVQ

How the values were obtained:
[1] = target: T1, NativeRPtag(large)_with_Tags_and_Cys; assay: fluorescence anisotropy, competitor chase
[2] = target: T1, NativeRPtag(large)_with_Tags_and_Cys; assay: calculated from koff and Kd
[3] = target: T1, NativeRPtag(large)_with_Tags_and_Cys; assay: fluorescence anisotropy
[4] = target: T1, NativeRPtag(large)_with_Tags_and_Cys; assay: fluorescence anisotropy, association kinetics

| Molecule | koff [1] [s⁻¹] | kon [2] [M⁻¹ s⁻¹] | Kd [3] [nM] | Keq (S-S*) [4] | kf (S to S*) [4] [min⁻¹] | kr (S* to S) [4] [min⁻¹] |
| --- | --- | --- | --- | --- | --- | --- |
| RPtag(small) Nd2, k3a, e18a (peptide) | 0.000533 | 433000 | 0.88 |  |  |  |
| B1 | > 0.0333 |  | 11 | 6.5 | 0.095 | 0.015 |
| B2 | > 0.0333 |  | 13 |  |  |  |
| B3 | 8.83e-05 | 850000 | 0.1 | 1.9 | 0.084 | 0.044 |
| B4 | 9.5e-05 | 167000 | 0.54 |  |  |  |
| B5 | 5.67e-05 | 583000 | 0.1 | 0.8 | 0.087 | 0.11 |
| B6 | 0.0001 | 400000 | 0.26 | 0.9 | 0.086 | 0.098 |
| B7 | 4e-05 | 233000 | 0.18 | 2.7 | 0.092 | 0.04 |
| B8 | 8.83e-05 | 183000 | 0.49 |  |  |  |
| B9 | 0.0183 | 4.17e+06 | 4.5 | 1.4 | 0.077 | 0.053 |
| B10 | 0.00105 | 517000 | 2 | 2.2 | 0.08 | 0.036 |
| B11 | 0.0015 | 1.43e+06 | 1.1 | 0.8 | 0.078 | 0.046 |
| B12 | 2.5e-05 | 75000 | 0.34 | 1.3 | 0.082 | 0.068 |
| B13 | 0.00333 | 717000 | 4.7 | 1.1 | 0.089 | 0.081 |
| B14 | 0.000112 | 76700 | 0.8 | 1.9 | 0.08 | 0.042 |
| B15 | > 0.0333 |  | 8.9 | 1.8 | 0.075 | 0.044 |
| B16 | 0.000145 | 2.67e+06 | 0.056 | 1.1 | 0.054 | 0.048 |
| B17 | 0.00108 | 2e+06 | 0.54 |  |  |  |
| B18 | 0.00015 | 400000 | 0.55 |  |  |  |
| B19 | > 0.0333 |  | 200 |  |  |  |
| B20 | 0.0002 | 1.47e+06 | 0.14 |  |  |  |

| Molecule | koff [1] [s⁻¹] | kon [2] [M⁻¹ s⁻¹] | Kd [3] [nM] | Keq (S-S*) [4] | kf (S to S*) [4] [min⁻¹] | kr (S* to S) [4] [min⁻¹] |
| --- | --- | --- | --- | --- | --- | --- |
| B21 | 0.000467 | 1.57e+06 | 0.3 |  |  |  |
| B22 | > 0.0333 |  | 250 |  |  |  |
| B23 | > 0.0333 |  | 520 |  |  |  |
| B24 | 0.000917 | 1.55e+06 | 0.59 |  |  |  |
| B25 | 0.00667 | 1.37e+06 | 4.9 |  |  |  |
| B26 | > 0.0333 |  | 9.9 |  |  |  |
| B27 | 0.000933 | 1.6e+06 | 0.59 |  |  |  |
| B28 | 0.000967 | 1.53e+06 | 0.63 |  |  |  |
| B29 | 0.0065 | 1.83e+06 | 3.6 |  |  |  |
| B30 | > 0.0333 |  | 30000 |  |  |  |
| B31 | > 0.0333 |  | 57 |  | 0.32 | 0.05 |
| B32 | > 0.0333 |  | 71 |  |  |  |
| B33 | > 0.0333 |  | 7.3 |  |  |  |
| B34 | > 0.0333 |  | 8.2 |  |  |  |
| B35 | > 0.0333 |  | 84000 |  |  |  |
| B36 | 0.000138 | 1.08e+06 | 0.13 | 0.4 | 0.044 | 0.13 |
| B37 | 5.83e-05 | 883000 | 0.067 | 0.7 | 0.063 | 0.086 |
| B38 | 0.000217 | 567000 | 0.26 |  |  |  |
| B39 | 0.02 | 1.18e+06 | 16 |  |  |  |
| B40 | 0.0007 | 300000 | 2.4 |  |  |  |
| B41 | 0.00417 | 717000 | 5.9 |  |  |  |

From patent US20200102347A1 (AUCTUS BIOLOGIES, published 2020)
